This is an account of results in EP1724347A2.

This assay deals with GST-KIX. Put plainly: fluorescence polarization.

Where no end group is shown, it is not given here.

GST-KIX, sequence (P45481 586-665): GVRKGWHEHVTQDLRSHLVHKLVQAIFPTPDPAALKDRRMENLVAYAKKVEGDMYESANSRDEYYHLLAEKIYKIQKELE

B1: phosphorylated PPKID2 (designed binder)
chain: GMSRVTPGGDDAPVRRLSFFYILRDLYLDAPC(acetamidofluorescein)
modifications: also: phosphorylated, site not given here
The molecule B1 returned a Kd of 280 nM.

B2: phosphorylated PPKID3 (designed binder)
chain: GASPHTSSGDDAPVRRLSFFDILLDLYLDAPC(acetamidofluorescein)
modifications: also: phosphorylated, site not given here
In the case of B2, the Kd amounted to 73 nM.

B3: unphosphorylated PPKID3 (designed binder)
chain: GASPHTSSGDDAPVRRLSFFDILLDLYLDAPC(acetamidofluorescein)
With B3, the equilibrium dissociation constant (Kd) was 681 nM.

B4: phosphorylated PPKID1 (designed binder)
chain: GASDMTYWGDDAPVRRLSFFYILLDLYLDAPC(acetamidofluorescein)
modifications: also: phosphorylated, site not given here
Regarding B4, the Kd is 31 nM.

B5: unphosphorylated PPKID2 (designed binder)
chain: GMSRVTPGGDDAPVRRLSFFYILRDLYLDAPC(acetamidofluorescein)
On to B5, for which the Kd came to 7600 nM. Compared with the last molecule, the Kd is about 250-fold higher.
